{"source": "patent US20030125515A1", "about": "(published 2003)", "key": {"[1]": {"molecular_target": "gp41 of HIV JRFL (from the JRFL gp160 gene, on pseudotyped virus) (HIV-1 JRFL)", "experiment": "cell-based or functional assay"}, "[2]": {"molecular_target": "gp41 of HIV HXB2 (from the HXB2 gp160 gene, on pseudotyped virus) (HIV-1 HXB2, UniProt P04578 33-856)", "experiment": "cell-based or functional assay"}}, "data": [{"binder": "end-locked five-helix protein having SEQ ID NO.: 2 (designed binder, disulfide bond between the cysteine of the N-terminal linker and the cysteine of inside linker 2; disulfide bond between the cysteine of the C-terminal linker and the cysteine of inside linker 3 (as in FIG. 3b)) MCGGGSQLLSGIVQQQNNLLRAIEAQQHLLQLTVWGIKQLQASGGSGGSWMEWDREINNYTSLIHSLIEESQNQQEKNEQELLSGGCGGSQLLSGIVQQQNNLLRAIEAQQHLLQLTVWGIKQLQASGGCGGSWMEWDREINNYTSLIHSLIEESQNQQEKNEQELLSGGSGGSQLLSGIVQQQNNLLRAIEAQQHLLQLTVWGIKQLQASGGGC", "values": [{"measurement": "EC50 in the virus-cell fusion assay (HIV luciferase assay, HOS-CD4-CCR5 cells)", "setting": "[1]", "result": 0.75, "unit": "nM"}, {"measurement": "EC50 in the virus-cell fusion assay (HIV luciferase assay, HOS-CD4 cells)", "setting": "[2]", "result": 15, "unit": "nM"}]}]}
